Assay results published in PMC12067460, “Probing the ferredoxin:hydrogenase electron transfer complex by infrared difference spectroscopy†” (Chemical Science, 2025).
Blank lines part the entries; values can stand above or below the molecule they belong to. Where no end group is shown, it is not given here.

Experiments:
[1] = molecular target: Y3pCNF-CpFd, ferredoxin CpFd from Clostridium pasteurianum with tyrosine Y3 replaced by 4-cyano-L-phenylalanine (holo) (Clostridium pasteurianum) (UniProt P00195); assay: MST; anaerobic; reducing conditions (dithionite); ferredoxin labelled with Alexa Fluor 647
[2] = molecular target: clostridial 2[4Fe-4S] ferredoxin CpFd from Clostridium pasteurianum, wild type (holo) (Clostridium pasteurianum) (UniProt P00195); assay: as above
[3] = molecular target: ferredoxin PetF from Chlamydomonas reinhardtii, wild type, Alexa Fluor 647-labeled (Chlamydomonas reinhardtii) (UniProt P07839); assay: MST; labeled PetF (200 nM) titrated with unlabeled CrHydA1 (0.003–10 µM) with 2 mM dithionite under anaerobic conditions; read-out: concentration-dependent fluorescence quenching of the Alexa Fluor 647 label; 50 mM TRIS pH 8, 50 mM NaCl, 1 mM MgCl2, 0.05 mg/mL BSA, 0.05% Tween20; Monolith NT.115, 22°C
[4] = molecular target: T1, [FeFe]-hydrogenase CpI from Clostridium pasteurianum (Clostridium pasteurianum, UniProt P29166 1-574); assay: MST; anaerobic; reducing conditions (dithionite); ferredoxin labelled with Alexa Fluor 647; settings: both partners purified
T1 construct: [FeFe]-hydrogenase CpI of Clostridium pasteurianum, with H-domain (H-cluster) and F-domain (three [4Fe-4S] clusters, one [2Fe-2S] cluster)
T1 sequence: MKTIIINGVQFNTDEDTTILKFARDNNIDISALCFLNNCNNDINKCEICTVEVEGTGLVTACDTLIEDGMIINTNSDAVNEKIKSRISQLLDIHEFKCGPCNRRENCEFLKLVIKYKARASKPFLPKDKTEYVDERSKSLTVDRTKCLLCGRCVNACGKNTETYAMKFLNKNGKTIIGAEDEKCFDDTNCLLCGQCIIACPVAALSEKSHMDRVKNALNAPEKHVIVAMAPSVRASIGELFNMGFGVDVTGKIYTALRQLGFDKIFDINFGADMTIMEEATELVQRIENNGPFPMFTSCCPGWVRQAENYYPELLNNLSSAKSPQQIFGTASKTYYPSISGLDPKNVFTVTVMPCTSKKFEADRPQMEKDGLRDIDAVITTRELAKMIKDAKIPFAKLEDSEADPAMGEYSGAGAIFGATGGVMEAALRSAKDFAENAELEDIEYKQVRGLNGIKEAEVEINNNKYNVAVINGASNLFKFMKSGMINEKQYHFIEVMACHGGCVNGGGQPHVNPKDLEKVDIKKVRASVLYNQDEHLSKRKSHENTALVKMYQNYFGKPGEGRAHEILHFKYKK

Molecule: [FeFe]-hydrogenase CpI from Clostridium pasteurianum (from UniProt P29166 1-574) (enzyme)
Kd [1]: 11.3 µM

Kd [2]: 2.41 µM
Kd [3]: 1.24 µM
Molecule: [FeFe]-hydrogenase CrHydA1 from Chlamydomonas reinhardtii (enzyme)

Kd [4]: 12.4 ± 0.97 µM
B1: clostridial 2[4Fe-4S] ferredoxin CpFd from Clostridium pasteurianum, wild type (holo) (natural protein)
chain: AYKIADSCVSCGACASECPVNAISQGDSIFVIDADTCIDCGNCANVCPVGAPVQE
modifications: cysteine pairing not given here; also: Alexa Fluor 647 dye label, site not given here, binds two [4Fe-4S] clusters (F and F')
notes: Ferredoxin CpFd of Clostridium pasteurianum, 2[4Fe-4S] type, wild type; Tested reduced (with dithionite) and oxidized (without dithionite); the redox state is told by the assay; also called wild-type CpFd; holo-CpFd; source: E. coli C321.ΔA.opt
